According to patent publication US20020077295A1:
Where no end group is shown, it is not given here.

Biological target: Nogo binding sites (axonal Nogo receptors) on chick dorsal root ganglion neurons (chick)
Assay: competition with 10 nM AP-Nogo binding to chick E12 DRG neurons (FIG. 3b)

Ki: 150 nM
Binder: RIYKGVIQAIQKSDEGHPFRAYLESEVAISEELVQKYSNS (not fully specified) [Pep2-41 (2-41 fragment of Nogo)]
